# In patent US20030113743A1 (BAYLOR COLLEGE OF MEDICINE HYBRITECH, published 2003):
# B1: wild type mature hK2 (prostate-specific glandular kallikrein protein) (enzyme)
# chain: not shown
# notes: From spent medium of AV12-hK2, PC3-hK2 and DU145-hK2 cells, LNCaP medium, seminal fluid or prostate tissue, depending on the experiment; also called native hK2
# Legend:
# Experiment in all cases: covalent complex formation, SDS-PAGE and Western blot with HK1G586.1
# antichymotrypsin (ACT) = target: T1, antichymotrypsin (ACT) (human, UniProt P01011 24-423)
# T1 construct: Serpin, used at 20 µM; also called 1-antichymotrypsin
# T1 sequence (looked up): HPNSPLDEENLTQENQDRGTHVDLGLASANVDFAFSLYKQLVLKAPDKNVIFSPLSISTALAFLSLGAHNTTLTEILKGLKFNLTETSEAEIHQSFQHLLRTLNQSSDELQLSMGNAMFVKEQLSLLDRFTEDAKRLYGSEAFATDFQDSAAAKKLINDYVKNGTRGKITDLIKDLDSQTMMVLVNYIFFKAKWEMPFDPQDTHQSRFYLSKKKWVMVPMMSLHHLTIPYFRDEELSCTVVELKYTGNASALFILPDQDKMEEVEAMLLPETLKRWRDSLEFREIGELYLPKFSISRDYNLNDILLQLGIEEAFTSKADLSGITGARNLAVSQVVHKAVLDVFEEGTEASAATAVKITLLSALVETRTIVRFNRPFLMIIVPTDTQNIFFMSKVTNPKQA
# Description: (§1) FIG. 18 depicts Western blot analysis of hK2 incubated with protease inhibitors. Each sample was separated on a 8-25% gradient SDS-PAGE, blotted and probed with HK1G586.1. hK2 was incubated for 4 hours at 37° C. with the following inhibitors: Lane 1, antichymotrypsin (ACT); lane 2, alpha 2-antiplasmin; lane 3, anti-thrombin III; lane 4, alpha 1-protease inhibitor (anti-trypsin); lane 5, alpha 2-macroglobulin; lanes 1 and 2 show a covalent complex of the predicted Mr of 90-100 kD. Serpin inhibitors were employed at 20 μM, macroglobulin at 2.8 μM, and hK2 at 0.175 μM.
# (§2) To test for covalent complex formation, 0.175 μM hK2 was incubated with 20 μM of inhibitor at pH 8 in 100 mM borate buffer. Inhibitors tested were 1-antichymotrypsin, 1-antitrypsin, 1-antiplasmin, antithrombin and 2-macroglobulin. To 5 μl of hK2 (10 μg/ml) was added the calculated μg of inhibitor prepared in 100 mM borate buffer and, if needed, each sample brought up to a total volume of 10 μl. Samples were incubated for 3 hours at 37° C. whereupon 1.5 μl of 7 X PhastSystem SDS sample buffer containing 35% 2-mercaptoethanol was added and the sample boiled for 3 minutes in a water bath. Samples were diluted 1/4 in SDS sample buffer prior to application to SDS/PAGE and Western analyses.
# alpha 2-antiplasmin = target: T2, alpha 2-antiplasmin (human, UniProt P08697 40-491, limits assumed)
# T2 construct: Serpin, used at 20 µM; also called α2-antiplasmin; 1-antiplasmin
# T2 sequence (looked up): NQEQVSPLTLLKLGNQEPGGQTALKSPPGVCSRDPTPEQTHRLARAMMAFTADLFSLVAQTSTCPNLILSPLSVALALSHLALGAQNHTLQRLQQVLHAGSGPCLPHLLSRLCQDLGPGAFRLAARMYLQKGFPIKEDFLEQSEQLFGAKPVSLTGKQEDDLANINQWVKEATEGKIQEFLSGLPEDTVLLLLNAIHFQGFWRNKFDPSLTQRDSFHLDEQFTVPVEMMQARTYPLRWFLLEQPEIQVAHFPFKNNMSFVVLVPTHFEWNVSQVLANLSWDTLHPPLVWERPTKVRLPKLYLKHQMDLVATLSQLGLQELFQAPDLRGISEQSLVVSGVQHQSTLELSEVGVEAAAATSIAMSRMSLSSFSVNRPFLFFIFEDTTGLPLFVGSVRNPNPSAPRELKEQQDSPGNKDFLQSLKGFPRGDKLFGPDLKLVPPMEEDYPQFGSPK
# Description: as §1, §2
# antithrombin III = target: T3, antithrombin III (human, UniProt P01008 33-464)
# T3 construct: Serpin, used at 20 µM
# T3 sequence (P01008 33-464 limits assumed): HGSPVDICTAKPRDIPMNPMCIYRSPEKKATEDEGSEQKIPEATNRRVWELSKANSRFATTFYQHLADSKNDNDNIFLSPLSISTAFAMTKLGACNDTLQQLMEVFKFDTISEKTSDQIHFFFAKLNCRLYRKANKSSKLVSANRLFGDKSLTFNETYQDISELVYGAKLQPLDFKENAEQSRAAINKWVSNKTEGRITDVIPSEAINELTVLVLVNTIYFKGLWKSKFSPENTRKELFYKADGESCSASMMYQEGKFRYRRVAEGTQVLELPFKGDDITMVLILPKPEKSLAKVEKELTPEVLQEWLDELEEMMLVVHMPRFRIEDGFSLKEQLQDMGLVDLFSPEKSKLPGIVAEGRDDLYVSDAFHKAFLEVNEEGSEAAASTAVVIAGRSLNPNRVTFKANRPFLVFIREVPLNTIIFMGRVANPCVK
# Description: as §1, §2
# [1] = target: T4, α1-antitrypsin (alpha 1-protease inhibitor) (human, UniProt P01009 25-418)
# T4 construct: Serpin, used at 20 µM
# T4 sequence (P01009 25-418 limits assumed): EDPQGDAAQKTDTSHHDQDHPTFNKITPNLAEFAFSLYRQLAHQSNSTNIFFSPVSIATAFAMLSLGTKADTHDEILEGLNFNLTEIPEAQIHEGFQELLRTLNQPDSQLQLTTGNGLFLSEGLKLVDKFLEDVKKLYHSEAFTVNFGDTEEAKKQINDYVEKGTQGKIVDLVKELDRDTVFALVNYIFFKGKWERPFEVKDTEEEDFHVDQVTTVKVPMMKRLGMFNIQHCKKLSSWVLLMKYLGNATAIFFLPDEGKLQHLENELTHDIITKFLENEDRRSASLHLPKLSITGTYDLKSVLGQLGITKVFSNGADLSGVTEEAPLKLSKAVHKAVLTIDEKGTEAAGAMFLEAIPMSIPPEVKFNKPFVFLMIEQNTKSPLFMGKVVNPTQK
# Description: as §1, §2
binder,measurement,setting,value
B1,binding result,antichymotrypsin (ACT),binds
same,binding result,alpha 2-antiplasmin,binds
same,binding result,antithrombin III,"no binding (tested: 20 µM inhibitor, 0.175 µM hK2)"
same,binding result,[1],"no binding (tested: 20 µM inhibitor, 0.175 µM hK2)"
